Measurements from patent US20190077858A1 (KM BIOLOGICS, published 2019).

Legend:
[1] = target: T1, human IL-18 (MBL Medical & Biological Laboratories, Co., Ltd.) (human, UniProt Q14116 37-193, biotinylated (Biotin-PEAC5-maleimide or Biotin-AC5 Sulfo-OSu) in the streptavidin plate ELISAs and the panning; not labelled in the receptor binding and KG-1 assays); experiment: ELISA, biotinylated human IL-18 on streptavidin plate, HRP detection antibody, O.D. 450nm/650nm
T1 construct: Bought protein; also called human interleukin-18; biotinylated human IL-18
T1 sequence (looked up): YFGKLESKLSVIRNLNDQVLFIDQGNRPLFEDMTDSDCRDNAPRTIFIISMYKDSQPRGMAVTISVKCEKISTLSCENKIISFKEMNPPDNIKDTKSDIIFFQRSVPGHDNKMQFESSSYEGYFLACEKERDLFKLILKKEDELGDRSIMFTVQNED
Protocol: The binding activity of the obtained scFv phages, scFv, and IgG prepared by a standard method (conventional method) was evaluated by ELISA. The biotinylated human IL-18 or the biotinylated mouse IL-18 was diluted to 1 μg/mL with PBS (Sigma-Aldrich Corp.), added at 100 μL/well to Streptavidin plates (Nunc), and incubated at room temperature for 2 hours to immobilize the IL-18. After the immobilization, the plates were washed with PBST, and each obtained scFv phage, scFv, or IgG was added at 100 μL/well to the plates and incubated at 37° C. After 1 hour, the plates were washed with PBST, and a detection antibody anti-M13/HRP (GE Healthcare Japan Corp.), anti-His tag/HRP (Bethyl Laboratories, Inc.), anti-V5 tag/HRP (Bethyl Laboratories, Inc.), anti-mouse IgG/HRP (Invitrogen Corp.), or anti-hFc/HRP (Cosmo Bio Co., Ltd., The binding site) was added at 100 μL/well to the plates and incubated at 37° C. After 1 hour, the plates were washed with PBST, and TMB (Sigma-Aldrich Corp.) was added at 100 μL/well to the plates to develop color. After 30 minutes, the reaction was terminated with 2 N sulfuric acid, and the color values (O.D. 450 nm/650 nm) were measured using a microplate reader (Molecular Devices, Inc.).

[2] = target: T1, human IL-18 (MBL Medical & Biological …); experiment: flow cytometry, blocking: human IL-18 100 ng/mL pre-mixed with the antibody, added to KG-1 cells, bound IL-18 detected with biotinylated 125-2H and streptavidin-PE; blocked partner: native IL-18 receptor [b]
Protocol: Human IL-18 (MBL Medical & Biological Laboratories, Co., Ltd.) was diluted to 100 ng/mL with 1% BSA-PBS-0.05% NaN₃-2% rabbit serum, mixed with the obtained anti-IL-18 antibody, and incubated at room temperature for 60 minutes. Then, the human IL-18/anti-IL-18 antibody mixed solution was added to KG-1 cells (1×10⁵ cells) cultured by a standard technique (e.g., a medium in which an RPMI1640 medium was supplemented with 10% bovine serum, 2 mM L-glutamine, 50 U/mL penicillin, and 50 μg/mL streptomycin), and reacted on ice. After 30 minutes, the supernatant was removed by centrifugation (1200 rpm, 3 min, 4° C.), and a biotinylated anti-IL-18 antibody 125-2H (MBL Medical & Biological Laboratories, Co., Ltd.) not inhibiting the binding between IL-18 and IL-18 receptor was added thereto and reacted on ice. After 30 minutes, the supernatant was removed by centrifugation (1200 rpm, 3 min, 4° C.), and streptavidin-PE (BD Becton, Dickinson and Company) was added thereto and reacted on ice for 30 minutes. After the reaction, the supernatant was removed by centrifugation (1200 rpm, 3 min, 4° C.), and the KG-1 cells were floated with 1% BSA-PBS-0.05% NaN₃-2% rabbit serum. The fluorescence intensity in the reacted KG-1 cells was measured using FACScan (BD Becton, Dickinson and Company).

[3] = target: T1, human IL-18 (MBL Medical & Biological …); experiment: cell-based or functional assay
[4] = target: T2, human IL-33 (MBL Medical & Biological Laboratories, Co., Ltd.) (human, UniProt O95760 112-270, limits assumed, biotinylated (Biotin-PEAC5-maleimide or Biotin-AC5 Sulfo-OSu)); experiment: ELISA on biotinylated cytokine on streptavidin plates
T2 construct: also called biotinylated human IL-33
T2 sequence (looked up): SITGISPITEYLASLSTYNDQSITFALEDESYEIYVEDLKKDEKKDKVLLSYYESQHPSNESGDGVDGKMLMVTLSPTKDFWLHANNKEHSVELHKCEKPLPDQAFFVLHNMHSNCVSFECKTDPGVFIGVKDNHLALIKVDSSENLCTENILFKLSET

[5] = target: T3, mouse IL-18 (MBL Medical & Biological Laboratories, Co., Ltd.) (mouse, UniProt P70380 36-192, biotinylated (Biotin-PEAC5-maleimide or Biotin-AC5 Sulfo-OSu)); experiment: as above
T3 construct: also called biotinylated mouse IL-18
T3 sequence (looked up): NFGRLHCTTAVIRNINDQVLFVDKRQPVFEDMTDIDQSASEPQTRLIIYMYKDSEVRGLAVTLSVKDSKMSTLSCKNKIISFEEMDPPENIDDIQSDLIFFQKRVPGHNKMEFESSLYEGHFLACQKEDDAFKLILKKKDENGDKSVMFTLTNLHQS

[6] = target: T4, rat IL-18 (Acris Antibodies GmbH) (rat, UniProt P97636 37-194, limits assumed, biotinylated (Biotin-PEAC5-maleimide or Biotin-AC5 Sulfo-OSu)); experiment: as above
T4 construct: also called biotinylated rat IL-18
T4 sequence (looked up): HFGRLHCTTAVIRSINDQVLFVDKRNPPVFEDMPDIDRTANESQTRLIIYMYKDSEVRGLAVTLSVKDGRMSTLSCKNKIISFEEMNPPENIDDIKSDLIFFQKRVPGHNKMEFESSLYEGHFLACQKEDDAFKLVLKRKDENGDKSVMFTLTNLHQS

[7] = target: T5, human IL-1β (Funakoshi Corp.) (human, UniProt P01584 117-269, biotinylated (Biotin-PEAC5-maleimide or Biotin-AC5 Sulfo-OSu)); experiment: as above
T5 construct: also called biotinylated human IL-1β

B1: IgG molecule-type 4A6D (antibody, V domains shown)
VH: EVQLVESGGGLVQPGGSMRLSCTASGFTFDEYAMSWVRQAPGKGLEWVSGISTGGGGTYYADSVEGRFTISRDNSKNTLYLQMNSLRAEDTAVYYCAKPWLSGSRSGDFWGQGTLVTVSS
VL: QSALTQPASVSGSPGQSITISCTGTSSDVGGYNYVSWYQQHPGKAPKLLIYEVSHRPSGVSDRFSGSKSGNTASLTISGLQAEDEADYYCSSFTSSSSLYVFGTGTKLTVL
notes: detected with anti-hFc, so human constant regions; also called human anti-human IL-18 antibody 4A6D
- EC50 (read off the curve) [1]: ~0.02 µg/mL
- IC50 (read off the curve) [2]: ~0.2 µg/mL
- Neutralizing ability (IC50, nM) [3]: 0.007 nM
- binding result [4]: no binding
- binding result [5]: no binding
- binding result [6]: no binding
- binding result [7]: no binding
